Data: US20240409645A1 (DUALYX, published 2024)
Residue numbers refer to the chain shown, from its start.

T1: human IL-2Rα (human, UniProt P01589 22-240, limits assumed)
T1 construct: recombinant protein; also called hu IL-2R; human IL-2Ra
T1 sequence: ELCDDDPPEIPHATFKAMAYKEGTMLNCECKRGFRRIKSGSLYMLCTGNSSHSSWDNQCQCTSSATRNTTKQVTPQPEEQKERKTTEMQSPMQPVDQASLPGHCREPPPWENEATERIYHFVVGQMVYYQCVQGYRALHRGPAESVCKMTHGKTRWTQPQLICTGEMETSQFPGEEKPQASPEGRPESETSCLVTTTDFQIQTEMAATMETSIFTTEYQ

T2: human IL-2Rγ (common cytokine receptor γ-chain) (human, UniProt P31785 23-262, limits assumed)
T2 construct: Recombinant protein coated on the plate or immobilised on a CM5 chip; also called hu IL-2R; CD132
T2 sequence: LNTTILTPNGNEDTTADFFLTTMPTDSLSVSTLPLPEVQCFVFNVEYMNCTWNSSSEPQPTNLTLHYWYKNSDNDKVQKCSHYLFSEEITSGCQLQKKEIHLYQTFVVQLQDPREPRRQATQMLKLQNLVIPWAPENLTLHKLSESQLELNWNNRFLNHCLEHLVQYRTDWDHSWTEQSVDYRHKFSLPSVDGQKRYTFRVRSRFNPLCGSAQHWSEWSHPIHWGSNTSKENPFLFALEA

B1: FJ1427_P035MP01D09 (VHH)
VHH: QVQLVESGGGLVQPGGSLRLSCAASGFTFSNNFMSWVRQAPGKGLEWVSTISYGGESTTYAESVKGRFTISRDNAKNTLYLQMNNLKPEDTAVYYCAKATSYDSIRSGSRGQGTQVTVSS
notes: periplasmic extract; also called clone nr; 68
B2: 8-MP01C12 (VHH)
VHH: B1 VHH with A24T, W47F, S63A, V93I, D103T, S107G, G108A, S109P
notes: periplasmic extract; also called FJ1427_P035MP01C12
B3: 2-MP01A02 (VHH)
VHH: B1 VHH with A24T, S30R
notes: periplasmic extract; also called FJ1427_P035MP01A02
B4: FJ1427_P035MP01C03 (VHH)
VHH: B1 VHH with Q1E, A24T, S30R
notes: periplasmic extract; also called clone nr; 19
B5: FJ1427_P035MP01E11 (VHH)
VHH: B1 VHH with G54F, E56D, T59R, A75E, Q112R
notes: periplasmic extract; also called clone nr; 85
B6: FJ1427_P035MP01G04 (VHH)
VHH: B1 VHH with G54F, E56D, T59R, A75E, Y80H, Q112R
notes: periplasmic extract; also called clone nr; 31
B7: FJ1427_P035MP01D03 (VHH)
VHH: B1 VHH with Q1E, A24T, S30R, K43E
notes: periplasmic extract; also called clone nr; 20
B8: FJ1427_P035MP01H05 (VHH)
VHH: B1 VHH with Q1E, G54F, E56D, Q112R
notes: periplasmic extract; also called clone nr; 40
B9: FJ1427_P035MP01F03 (VHH)
VHH: B1 VHH with I105V
notes: periplasmic extract; also called clone nr; 22
B10: 1-MP01H01 (VHH)
VHH: EVQLVESGGGLVQAGGSLRLSCAASGRTFRTHNMGWFRRAPGKEREFVAAISWNVDNTLYADSVKGRFTISRDNGRNMVYLQMNSLKPEDTAVYYCAADNIPLSSDVAATATEYDYWGQGTQVTVSS
notes: periplasmic extract; also called FJ1427_P035MP01H01
B11: FJ1427_P035MP01G01 (VHH)
VHH: B10 VHH with E1Q, V5Q, G75D, Y95F, A108R, Y114F, D115G, Q122R
notes: periplasmic extract; also called clone nr
B12: FJ1427_P035MP01D08 (VHH)
VHH: B10 VHH with R27G, H32R, I51V, T58K, D62G, V107M, A108R, A109P
notes: periplasmic extract; also called clone nr; 60
B13: FJ1427_P035MP01H11 (VHH)
VHH: B10 VHH with E1Q, G75D, Y95F, A108R, Y114F, D115G, Q122R
notes: periplasmic extract; also called clone nr; 88
B14: FJ1427_P035MP01E05 (VHH)
VHH: B10 VHH with E1Q, K43E, A50V, T58K, A108R, Y114F, D115G
notes: periplasmic extract; also called clone nr; 37
B15: FJ1427_P035MP04D11 (VHH)
VHH: EVQLVESGGGLVQAGGSLRLSCAASGRTFGAVAVGWFRQVPGKEREFVAAINRSGSATKYADSVKGRFTISRDNAESPVFLQMNSLKPEDTAVYYCAADSLPYGRPYYFQTSAGEYDYWGQGTQVTVSS
notes: VHH in periplasmic extract; also called clone nr
B16: FJ1427_P035MP04A09 (VHH)
VHH: B15 VHH with E1Q, S54N, V64A, F80Y, V93I
notes: as for B15
B17: 32-MP04A08 (VHH)
VHH: QVQLVESGGGLVQAGGSLRLSCAASGRTFGSTAVGWFRQVPGKEREFVSAINRSGSATTYADSVKGRFTISRDNAKNTVYLQMNSLTPEDTGVYYCAADSLPYGRPYYFQRSAGEYDYWGQGTQVTVSS
notes: VHH in periplasmic extract; also called FJ1427_P035MP04A08; clone nr
B18: FJ1427_P035MP04A04 (VHH)
VHH: QVQLVESGGGLVQAGESLRLSCAASGPTASRVAVAWFRQVPGKEREFVAVVNRPGTMTKYADSVKGRFTISRDSAKNTVYLQMNSLKPEDTAVYYCAADSVPYGRPYYFQTSAGNYDYWGQGTQVTVSS
notes: as for B15
B19: FJ1427_P035MP04A11 (VHH)
VHH: B18 VHH
notes: as for B15
B20: FJ1427_P035MP04D08 (VHH)
VHH: B18 VHH
notes: as for B15
B21: FJ1427_P035MP04G09 (VHH)
VHH: B18 VHH with V5Q, E16G, A29F, A35G, V50A, G55A, S74N, Y80D, L86M, N115E
notes: as for B15
B22: FJ1427_P035MP04B03 (VHH)
VHH: B18 VHH with V5Q
notes: as for B15
B23: FJ1427_P035MP04C11 (VHH)
VHH: B18 VHH with A14H, E16G, A29F, A35G, T56S, T69N, S74T, Q110T, N115D
notes: as for B15
B24: FJ1427_P035MP04H08 (VHH)
VHH: B18 VHH with Q1E
notes: as for B15
B25: FJ1427_P035MP04G08 (VHH)
VHH: QVQLVESGGGWVQVGESLRLSCAPSGRTFVSGIMGWFRQAPGKEREFVARIILNNNSTRYTDSVKGRFTISRDSAKNTMYLQMDSLRPEDTAVYYCAARDRYGSGNSLSPSAYDYWGQGTQVTVSS
notes: as for B15
B26: FJ1427_P035MP04H10 (VHH)
VHH: B25 VHH with W11L, V14A, E16G, T61I
notes: as for B15
B27: FJ1427_P035MP04H09 (VHH)
VHH: B25 VHH with Q1E, D84N, S85T
notes: VHH in periplasmic extract; also called clone nr; 360
B28: FJ1427_P035MP04G11 (VHH)
VHH: B25 VHH with K43E, D84N, S85T
notes: as for B15
B29: FJ1427_P035MP04H11 (VHH)
VHH: B25 VHH with L18P, A40T, D84N, S85T
notes: as for B15
B30: FJ1427_P035MP04G10 (VHH)
VHH: B25 VHH with N55S, V64A
notes: VHH in periplasmic extract; also called clone nr; 367
B31: FJ1427_P035MP04F02 (VHH)
VHH: QLQLVESGGGLVQAGGSLTLSCAASGRTFSRDVVGWFRQAPGKEREFVASISRSGDGTFYTDSVKGRFTISSRDNAKNTVLLQMNSLKVEDTAVYYCAAGDGWSTYDYWGQGTQVTVSS
notes: as for B15
B32: 33-MP04C09 (VHH)
VHH: QLQLVESGGGLVQAGGSLRLSCAASGPTFSRVAVGWFRQAPGKEREFVAAVNRPATMTKYADSVKGRFTVSRDNAKNTVDLQMNSMKPEDTAVYYCAADSVPYGRPYYWQTSAGDYDYWGQGTQVTVSS
notes: VHH in periplasmic extract; also called FJ1427_P035MP04C09; clone nr
B33: FJ1427_P035MP01H10 (VHH)
VHH: QVQLVESGGGLVETGGSLRLSCAASGITFNDHTMAWFRQAPGKEREFVAARDWSDIITRYASSVKGRFTISRDNAGNTGFLQMNSLRPEDTAVYYCAAREGGVVAGVRSGAPYDYWGQGTQVTVSS
notes: periplasmic extract; also called clone nr; 80
B34: FJ1427_P035MP01H08 (VHH)
VHH: B10 VHH with G10R, A14S, T28A, R30S, T58K, D62N, T69A, V107M, A108R, Y116V
notes: periplasmic extract; also called clone nr; 64

Biological target: T1, human IL-2Rα
Assay: SPR, P.E. on immobilised antigen
Method: (§1) SPR was performed to determine dissociation rates using Biacore 3000 instrument (GE Healthcare). Briefly, human and mouse IL-2R proteins were immobilized on carboxylmethyl dextran sensor chip (CM5) at approximately 2500 RUs using amine coupling in acetate buffer (GE Healthcare). The VHH-containing P.E. were loaded with a flow rate of 30 uL/min and the off-rates were measured over a 120s period.

| koff [s⁻¹] | Binder |
| --- | --- |
| 0.00212 | B1 |
| 0.000383 | B2 |
| 0.00153 | B3 |
| 0.00144 | B4 |
| 0.000704 | B5 |
| 0.00107 | B6 |
| 0.00189 | B7 |
| 0.00276 | B8 |
| 0.00327 | B9 |
| 0.0229 | B10 |
| 0.000414 | B11 |
| 0.000842 | B12 |
| 0.000725 | B13 |
| 0.000498 | B14 |

Biological target: T2, human IL-2Rγ (common cytokine receptor …)
Assay: SPR off-rate ranking, periplasmic extract on immobilised protein
Method: as §1

| koff [s⁻¹] | Binder |
| --- | --- |
| 0.0401 | B15 |
| 0.0576 | B16 |
| 0.0616 | B17 |
| 0.0378 | B18 |
| 0.0165 | B19 |
| 0.0195 | B20 |
| 0.0658 | B21 |
| 0.0421 | B22 |
| 0.0693 | B23 |
| 0.048 | B24 |
| 0.00892 | B25 |
| 0.00998 | B26 |
| 0.0222 | B27 |
| 0.0116 | B28 |
| 0.0103 | B29 |
| 0.0104 | B30 |
| 0.0026 | B31 |
| 0.031 | B32 |

Biological target: T1, human IL-2Rα
Assay: ELISA, P.E. on coated antigen
Method: (§2) In a binding ELISA, human or mouse IL-2Rα, IL-2Rβ and IL-2Rγ proteins were coated directly on maxisorp microtiter plates overnight at 4° C. Free binding sites were blocked using 4% Marvel in PBS for 1 hour. Next, 1:5 dilution of P.E. in 1% Marvel/PBS were added to wells and incubated for 1 hour. […] Binding specificity was determined based on O.D. at 450 nm values compared to negative controls.

| OD (PE binding ELISA) [OD450 nm] | Binder |
| --- | --- |
| 2.47 | B33 |
| 2.57 | B1 |
| 2.53 | B2 |
| 2.62 | B3 |
| 2.84 | B4 |
| 2.69 | B5 |
| 2.79 | B6 |
| 2.59 | B7 |
| 2.65 | B8 |
| 2.87 | B9 |
| 1.71 | B10 |
| 2.52 | B11 |
| 2.62 | B12 |
| 2.62 | B13 |
| 2.6 | B34 |
| 2.59 | B14 |

Biological target: T2, human IL-2Rγ (common cytokine receptor …)
Assay: PE binding ELISA, periplasmic extract on coated protein
Method: as §2

| OD (PE binding ELISA) [OD450 nm] | Binder |
| --- | --- |
| 1.41 | B15 |
| 1.23 | B16 |
| 0.407 | B17 |
| 1.31 | B18 |
| 0.593 | B19 |
| 0.579 | B20 |
| 0.559 | B21 |
| 1.37 | B22 |
| 0.912 | B23 |
| 1.3 | B24 |
| 1.84 | B25 |
| 1.8 | B26 |
| 1.87 | B27 |
| 1.4 | B28 |
| 1.77 | B29 |
| 0.839 | B30 |
| 0.196 | B31 |
| 1.69 | B32 |
